The source of these data is patent US20060110777A1 (Genentech, published 2006).

Where “and” joins values, the source holds several entries; their conditions need not be identical. Equal entries are not always repeated. Positions of bridges follow the written chain, without caps; N, C: chain ends. No end group written: not given here.

In this assay the target is T1, BAFF (UniProt Q9Y275 134-285, limits assumed).
T1 construct: Coated on ELISA plates at 2 ug/ml; The construct is not described; also called BLyS; TALL-1
T1 sequence (Q9Y275 134-285 limits assumed): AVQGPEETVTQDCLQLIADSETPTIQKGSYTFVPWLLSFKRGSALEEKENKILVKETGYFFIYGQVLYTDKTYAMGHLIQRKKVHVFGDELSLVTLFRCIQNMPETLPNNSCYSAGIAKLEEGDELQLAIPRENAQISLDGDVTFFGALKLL
Description: competitive displacement ELISA, BAFF coated, biotinylated miniBR3 as tracer. The procedure: FIGS. 16A-16B depict binding of BR3 variants to BAFF. (A) Competitive displacement of biotinylated miniBR3 measured by ELISA (see methods). Data are shown for BR3 extracellular domain (filled triangles), miniBR3 (open squares), and bhpBR3 (filled circles). IC₅₀ values from the fitted curves are 70 nM, 65 nM, and 15 μM, respectively. (B) HeLa cells expressing a chimeric receptor composed of the extracellular ligand-binding domain of BR3 fused to the death domain of DR4 were seeded 16 hr before treatment. BAFF (2 nM) was added to cells alone or after being preincubated with miniBR3 (3 μM), bhpBR3 (100 μM) or a control hairpin peptide with an unrelated turn sequence in the same bhp scaffold (bhpC, 100 μM) for 30 min at room temperature. Apoptosis was assessed 24 hr later. […]
Nunc Maxisorp 96-well plates were coated overnight at 4° C. with 100 μl of a 2 μg/ml solution of BAFF in carbonate buffer, pH 9.6. […] The reaction was quenched with 100 μl/well 1M H₃PO₄ and the plate read at 490 nm. IC₅₀ values were determined by a four-parameter fit of the competitive displacement ELISA signal. The concentrations of initial stock solutions of bhpBR3 were determined spectrophotometrically as described (Gill and von Hippel, (1989) Anal. Biochem. 182:319-326), while those of miniBR3 and BR3 extracellular domain were determined by quantitative amino acid analysis.

B1: bhpBR3 (peptide)
peptide: CHWDLLVRHWVC-NH2
modifications: disulfide 1-12 (inferred)
notes: BR3 residues 26-31 (DLLVRH) embedded in the disulfide-bonded beta-hairpin (bhp) scaffold; also called the 12-residue peptide; turn peptide bhpBR3
The term IC50 denotes the concentration that inhibits the measured activity by half. A low value points to greater potency. Molecule B1 yielded an IC50 of 15000 nM.

B2: miniBR3 (peptide)
peptide: TPCVPAECFDLLVRHCVACGLLRTPR-NH2
modifications: disulfide 3-16, 8-19
notes: Synthetic peptide with the 1:3, 2:4 disulfide-bonding pattern; also called 26-residue miniBR3 peptide; the larger core domain
Consider B2, for which the IC50 was 65 nM and ~70 nM.
